In this test the target is T1, GST fusion of Xenopus RPA1 (RPA large subunit) (Xenopus, UniProt Q01588 1-609).
T1 construct: Xenopus RPA1, large subunit of replication protein A; the gene for the subunit was subcloned into a pGEX vector; In-frame GST fusion from a pGEX vector; also called the large subunit; source: E. coli BL21(DE3), purified (glutathione Sepharose)
The experiment in a line: pull-down; GST fusions of RPA subunits or RPA1 regions incubated with His-tagged WRN 1-465, isolated on glutathione Sepharose beads, 4°C 1 h; washed with buffer A + 150 mM NaCl + 0.005% NP-40; Western blot for WRN. As to conditions: both partners purified. On the technique in general: A western blot detects proteins with antibodies after separation by electrophoresis.

T1 sequence (Q01588 whole entry, the tested form may be a part): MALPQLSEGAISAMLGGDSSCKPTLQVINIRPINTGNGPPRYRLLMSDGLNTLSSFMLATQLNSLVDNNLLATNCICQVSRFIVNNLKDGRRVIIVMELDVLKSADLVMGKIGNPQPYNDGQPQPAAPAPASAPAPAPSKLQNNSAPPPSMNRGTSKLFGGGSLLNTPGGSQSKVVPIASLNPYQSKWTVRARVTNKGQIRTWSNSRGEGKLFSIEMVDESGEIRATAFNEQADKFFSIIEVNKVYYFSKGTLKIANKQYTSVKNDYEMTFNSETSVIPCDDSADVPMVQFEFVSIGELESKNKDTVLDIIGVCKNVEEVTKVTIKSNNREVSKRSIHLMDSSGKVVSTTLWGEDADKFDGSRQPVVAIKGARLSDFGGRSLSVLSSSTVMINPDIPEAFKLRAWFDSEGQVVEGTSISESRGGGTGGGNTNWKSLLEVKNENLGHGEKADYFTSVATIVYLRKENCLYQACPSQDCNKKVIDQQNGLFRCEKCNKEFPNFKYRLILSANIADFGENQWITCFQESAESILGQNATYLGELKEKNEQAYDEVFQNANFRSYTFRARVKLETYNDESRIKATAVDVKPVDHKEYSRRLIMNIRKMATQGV

B1: His-tagged Xenopus WRN 1-465 (domain or fragment, UniProt O93530 1-465, looked up)
chain: MTSLQRKLPEWMSVKQQEDRIDDAKKSFCKKNILEDNLPFMKFNGSIVYSYESNDCSLLSEDIRSSLLEEDVLGFDIEWPPVYTKGKTGKVALIQVCVSEKKCYLFHISPMAGFPKGLKRLLEDESVRKVGVGIEGDQWKLMSDYELKLKGFIELSEMANQKLRCKEKWTFNGLIKHLFKEQLYKRKSYRCSNWDIFLLTEDQKLYAATDAYAGLLIYKKLEGMDAHESDSFRVGREGVADCKGVKRQLTDLSKGLMDLVNQVPNSFGCYTEAVRAVDILEDLSEKLEELRNIMKEASKAEGNGLHFQNSEDCSKKDKSILHVACKESLAEHKMDCKNADSQNNKDIDSCQNENRDEDFFMTLGISEEELYMMEREDDKKQTNPDYKLNKDSCDTNEEKDMSYVIESDEDFDSEIIKSLEDLDNSTEEALGTGVPQAGLIPAKSVDTVADEEEDEGIEEEDDDDD
B1: the binding result is given as “binds”.
